Data: paper PMC3907796

Target: DAO-6H (recombinant D-amino acid oxidase with C-terminal (His)6) (UniProt P14920)
Sequence (P14920 whole entry): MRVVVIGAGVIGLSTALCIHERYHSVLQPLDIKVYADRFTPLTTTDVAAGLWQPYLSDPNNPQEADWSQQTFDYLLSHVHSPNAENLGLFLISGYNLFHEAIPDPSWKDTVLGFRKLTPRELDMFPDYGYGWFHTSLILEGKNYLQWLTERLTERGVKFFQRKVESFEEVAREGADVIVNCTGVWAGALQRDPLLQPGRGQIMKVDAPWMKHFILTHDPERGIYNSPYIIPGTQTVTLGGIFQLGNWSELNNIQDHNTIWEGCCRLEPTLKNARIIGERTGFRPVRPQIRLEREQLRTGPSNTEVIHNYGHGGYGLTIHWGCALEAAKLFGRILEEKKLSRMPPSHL

B1: G72-6H (recombinant full-length G72 with C-terminal (His)6, refolded) (natural protein)
chain: MLEKLMGADSLQLFRSRYTLGKIYFIGFQRSILLSKSENSLNSIAKETEEGRETVTRKEGWKRRHEDGYLEMAQRHLQRSLCPWVSYLPQPYAELEEVSSHVGKVFMARNYEFLAYEASKDRRQPLERMWTCNYNQQKDQSCNHKEITSTKAE
- initial velocity (V0) of DAO activity (400 nM DAO-6H, 40 mM D-alanine, 25 °C) with 0, 1, 3, 10 μM G72; V0 at 10 μM, fold of DAO alone in parentheses (mol hydrogen peroxide produced/min/g DAO): 8.06
